Laboratory results as given in patent US20100158922A1 (published 2010).

Target: T1, recombinant human IFNγ (human, UniProt P01579 24-166)
T1 chain: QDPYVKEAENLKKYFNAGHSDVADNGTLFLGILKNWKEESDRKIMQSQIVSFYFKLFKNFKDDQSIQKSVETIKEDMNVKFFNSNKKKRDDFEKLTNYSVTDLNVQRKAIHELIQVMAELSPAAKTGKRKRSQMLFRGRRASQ
Experiment: SPR (Biacore)

Kd: 0.732 nM
B1: NI-0501 (antibody, V domains shown)
VH: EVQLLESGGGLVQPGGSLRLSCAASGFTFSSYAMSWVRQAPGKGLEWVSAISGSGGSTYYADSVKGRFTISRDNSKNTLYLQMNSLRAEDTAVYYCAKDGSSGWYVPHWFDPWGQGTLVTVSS
VL: NFMLTQPHSVSESPGKTVTISCTRSSGSIASNYVQWYQQRPGSSPTTVIYEDNQRPSGVPDRFSGSIDSSSNSASLTISGLKTEDEADYYCQSYDGSNRWMFGGGTKLTVL
